Biological target: CD2 (human) (UniProt P06729)
Assay: cell-based or functional assay

Chain of UniProt P06729 (P06729 25-351 limits assumed, form in doubt): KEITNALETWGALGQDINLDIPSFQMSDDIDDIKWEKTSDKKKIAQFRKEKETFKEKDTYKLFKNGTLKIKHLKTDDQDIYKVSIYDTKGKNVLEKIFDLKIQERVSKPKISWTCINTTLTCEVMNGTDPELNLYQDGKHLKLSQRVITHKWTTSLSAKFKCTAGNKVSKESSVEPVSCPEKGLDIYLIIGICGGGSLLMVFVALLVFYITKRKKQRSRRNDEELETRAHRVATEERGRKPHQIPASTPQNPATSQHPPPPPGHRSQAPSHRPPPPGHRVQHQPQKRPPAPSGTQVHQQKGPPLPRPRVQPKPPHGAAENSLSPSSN

An inhibition of allogeneic T cell activation by normal skin epidermal cells, 50 ug per ml antibody of 40% and an inhibition of autologous T cell proliferation ([3H]TdR incorporation) in response to lesional psoriatic epidermis, 50 ug/ml antibody, against isotype-matched control of 60% were found for anti-CD2 monoclonal antibody TS2/18 in this work.
